Data published in paper PMC11260453.

Key:
[1] = molecular target: T1, OC2 DNA-binding domain (UniProt O95948 330-485); assay: SPR
T1 sequence: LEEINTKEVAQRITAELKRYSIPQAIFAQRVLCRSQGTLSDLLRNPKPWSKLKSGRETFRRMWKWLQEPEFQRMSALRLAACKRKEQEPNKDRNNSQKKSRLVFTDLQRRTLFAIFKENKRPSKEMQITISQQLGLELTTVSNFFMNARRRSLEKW

[2] = molecular target: T1, OC2 DNA-binding domain; assay: SPR; remark: listed apart in the source

B1: UGT2B15 promoter 20 bp mutant (dsDNA)
DNA 1: TAACTTGGCTGTCTTTTCCT
DNA 2: AGGAAAAGACAGCCAAGTTA
binding result [1]: no binding

B2: UGT2B15 promoter 20 bp WT (dsDNA)
DNA 1: TAACTTGATTGATTTTTCCT
DNA 2: AGGAAAAATCAATCAAGTTA
Kd [2]: 1.13 ± 0.01 nM
